Laboratory results reported in patent US20220023399A1, “BLOOD COMPONENT POTENTIATION OF LYTIC PROTEIN ANTI-BACTERIAL ACTIVITY AND METHODS AND USES THEREOF” (priority 2017, published 2022).
Where “and” joins values, the source holds several entries; their conditions need not be identical. Equal values may be shown once.

Key:
S. aureus NRS 100 (MRSA) = assay: Checkerboard assay, additional MRSA strains; format: cell-based; conditions: paired agent not given
[1] = system: S. aureus (strain not given); assay: MIC assay in supplemented media (recapitulation of blood effect; delipidated serum with fatty acids); format: cell-based
MRSA strain MW2 [2] = assay: Rat infective endocarditis model; format: in vivo, Sprague-Dawley rats
MRSA strain MW2 [3] = assay: Rabbit infective endocarditis model; format: in vivo, New Zealand White Rabbits; conditions: rabbit; total dose ≥0.09 mg/kg PlySs2 (CF-301) in addition to DAP below the HTD equivalent
[4] = system: 171 clinical S. aureus isolates (MSSA, MRSA, vancomycin-, linezolid-, daptomycin-resistant); assay: MIC by broth microdilution in CAMHB vs human serum, 171 clinical isolates
[5] = system: S. aureus NRS 271 (MRSA, LRSA); assay: Checkerboard assay, additional MRSA strains; format: cell-based; conditions: paired agent not given
[6] = medium head missing (human serum)

B1: PlySs2 (CF-301): antistaphylococcal lysin from a Streptococcus suis prophage; N-terminal CHAP domain, C-terminal SH3-type binding domain; SEQ ID NO:3 (protein, listed as Streptococcus suis)
chain: MTTVNEALNNVRAQVGSGVSVGNGECYALASWYERMISPDATVGLGAGVGWVSGAIGDTISAKNIGSSYNWQANGWTVSTSGPFKAGQIVTLGATPGNPYGHVVIVEAVDGDRLTILEQNYGGKRYPVRNYYSAASYRQQVVHYITPPGTVAQSAPNLAGSRSYRETGTMTVTVDALNVRRAPNTSGEIVAVYKRGESFDYDTVIIDVNGYVWVSYIGGSGKRNYVATGATKDGKRFGNAWGTFK
ΣFICavg (S. aureus NRS 100 (MRSA); CAMHB): 0.75
ΣFICmin (S. aureus NRS 100 (MRSA); CAMHB): 0.5
ΣFICavg (S. aureus NRS 100 (MRSA); [6]): 0.29
ΣFICmin (S. aureus NRS 100 (MRSA); [6]): 0.25
Fold decrease in MIC ([1]; 50% MHB/50% human serum (heat inactivated) + HSA, 40 mg/mL): 4
Fold decrease in MIC ([1]; 50% MHB/50% human serum (heat inactivated) + HuLYZ, 10 μg/mL): 2
Fold decrease in MIC ([1]; 50% MHB/50% human serum (heat inactivated) + HuLYZ, 10 μg/mL + HSA 40 mg/mL): 16
Fold decrease in MIC ([1]; 50% MHB/50% human serum (heat inactivated) + MouseSA, 40 mg/mL): 1
Fold decrease in MIC ([1]; 50% MHB/50% human serum (heat inactivated) + RabSA, 40 mg/mL): 4
Fold decrease in MIC ([1]; 50% MHB/50% human serum (heat inactivated) + RatSA, 40 mg/mL): 2
Fold decrease in MIC ([1]; MHB supplemented with HSA, 40 mg/mL): 8
Fold decrease in MIC ([1]; MHB supplemented with HuLYZ, 10 μg/mL): 2
Fold decrease in MIC ([1]; MHB supplemented with HuLYZ, 10 μg/mL + HSA 40 mg/mL): 16
Fold decrease in MIC ([1]; MHB supplemented with RabSA, 40 mg/mL): 8
Fold decrease in CF-301 MIC compared to media alone ([1]; delipidated human serum + Oleate (0.625 mg/mL)): 8
Fold decrease in CF-301 MIC compared to media alone ([1]; delipidated human serum + Palmitate (0.625 mg/mL)): 16
Fold decrease in CF-301 MIC compared to media alone ([1]; delipidated human serum + Palmitate + Oleate): 16
fold lower doses giving comparable efficacy in the rabbit vs the rat model (MRSA strain MW2 [2]; S. aureus infectious endocarditis models): 111 fold
estimate AUC/MIC ratio required to achieve maximal efficacy (MRSA strain MW2 [2]; rat IE model, 10 mg/kg in addition to DAP, 3 log10 drop relative to DAP alone): ≥ 0.87
drop in CFU/g in heart valve vegetation (MRSA strain MW2 [2]; rat, total dose 10 mg/kg PlySs2 (CF-301) in addition to HTD equivalent of DAP, relative to DAP alone): ~3 log 10
fold higher AUC exposure required for similar bactericidal effect in rats compared to rabbits (MRSA strain MW2 [2]; rats 10 mg/kg vs rabbits 0.18 mg/kg): > 20 fold
fold higher dose required for similar bactericidal effect in rats compared to rabbits (MRSA strain MW2 [2]; rats 10 mg/kg vs rabbits 0.18 mg/kg, in addition to DAP): ~50 fold and > 50 fold
decrease in bacterial densities as compared to DAP treatment alone (MRSA strain MW2 [3]): 3 log 10
MIC Range ([4]; MRSA (N 75), CAMHB): 2-128
MIC Range ([4]; MRSA (N 75), human serum): 0.25-2
MIC Range ([4]; MSSA (N 74), CAMHB): 8-32
MIC Range ([4]; MSSA (N 74), human serum): 0.25-1
MIC Range ([4]; Other (N 22: 12 vancomycin-, 5 linezolid-, 5 daptomycin-resistant strains), CAMHB): 0.5-32^
MIC Range ([4]; Other (N 22: 12 vancomycin-, 5 linezolid-, 5 daptomycin-resistant strains), human serum): 0.25-2
ΣFICavg ([5]; CAMHB): 0.5
ΣFICmin ([5]; CAMHB): 0.38
ΣFICavg [5, 6]: 0.39
ΣFICmin [5, 6]: 0.25
